In article PMC6409784, “Chlorambucil Conjugated Ugi Dendrimers with PAMAM-NH2 Core and Evaluation of Their Anticancer Activity” (Pharmaceutics, 2019):
Where two headings read alike, the source gives them in different places.

Key:
Solubility of dendrimers = conditions: at 20 mg/mL
NIH3T3 fibroblasts [1] = experiment: CV viability assay on non-cancerous fibroblasts; assay type: cell-based, mouse; conditions: at the IC50 determined for PC-3 (7.3 µM), CV and MTT, 72 h
NIH3T3 fibroblasts [2] = conditions: read-out: IC50 NIH3T3, MTT; NIH3T3 mouse fibroblasts, 72 h, MTT assay
PC-3 cells [3] = conditions: read-out: IC50, CV assay, PC-3, 72 h
PC-3 cells [4] = conditions: read-out: IC50, MTT assay, PC-3, 72 h
PC-3 cells [5] = experiment: cells; conditions: Homo sapiens, PC-3, 72 h, read-out: IC50, CV assay, PC-3
PC-3 cells [6] = experiment: cells; conditions: Homo sapiens, PC-3, 72 h, read-out: IC50, MTT assay, PC-3
[7] = test system: PC-3 prostate cancer cell line; experiment: Viability by CV and MTT assays (fast screening / dose response); assay type: cell-based, human; conditions: 20 µM free chlorambucil, 72 h

Row | Compound | Solubility (Solubility of dendrimers) | other results
1 | CC(C)C(C(=O)NCCOCCOCCNC(=O)OC(C)(C)C)N(CCNC(=O)CCN(CCC(=O)NCCN(C(=O)CCCc1ccc(N(CCCl)CCCl)cc1)C(C(=O)NCCOCCOCCNC(=O)OC(C)(C)C)C(C)C)CCN(CCC(=O)NCCN(C(=O)CCCc1ccc(N(CCCl)CCCl)cc1)C(C(=O)NCCOCCOCCNC(=O)OC(C)(C)C)C(C)C)CCC(=O)NCCN(C(=O)CCCc1ccc(N(CCCl)CCCl)cc1)C(C(=O)NCCOCCOCCNC(=O)OC(C)(C)C)C(C)C)C(=O)CCCc1ccc(N(CCCl)CCCl)cc1 (centres unmarked) [Dendrimer 1a] | Low | 
2 | CC(C)C(C(=O)NCCOCCOCCN)N(CCNC(=O)CCN(CCC(=O)NCCN(C(=O)CCCc1ccc(N(CCCl)CCCl)cc1)C(C(=O)NCCOCCOCCN)C(C)C)CCN(CCC(=O)NCCN(C(=O)CCCc1ccc(N(CCCl)CCCl)cc1)C(C(=O)NCCOCCOCCN)C(C)C)CCC(=O)NCCN(C(=O)CCCc1ccc(N(CCCl)CCCl)cc1)C(C(=O)NCCOCCOCCN)C(C)C)C(=O)CCCc1ccc(N(CCCl)CCCl)cc1 (centres unmarked) [Dendrimer 1b] | High | effect on NIH3T3 cell growth (NIH3T3 fibroblasts [1]): did not affect NIH3T3 cell growth at all; IC50 (NIH3T3 fibroblasts [2]): 74.4 ± 2.31 µM; IC50 (PC-3 cells [3]): 3.65 ± 0.56 µM; IC50 (PC-3 cells [4]): 7.29 ± 1.18 µM
3 | COC(=O)CCCNC(=O)C(C(C)C)N(CCNC(=O)CCN(CCC(=O)NCCN(C(=O)CCCc1ccc(N(CCCl)CCCl)cc1)C(C(=O)NCCCC(=O)OC)C(C)C)CCN(CCC(=O)NCCN(C(=O)CCCc1ccc(N(CCCl)CCCl)cc1)C(C(=O)NCCCC(=O)OC)C(C)C)CCC(=O)NCCN(C(=O)CCCc1ccc(N(CCCl)CCCl)cc1)C(C(=O)NCCCC(=O)OC)C(C)C)C(=O)CCCc1ccc(N(CCCl)CCCl)cc1 (centres unmarked) [Dendrimer 2a] | Low | 
4 | COC(=O)CCCNC(=O)C(C(C)C)N(CCNC(=O)CCN(CCC(=O)NCCN(C(=O)CCCc1ccc(N(CCCl)CCCl)cc1)C(C(=O)NCCCC(=O)OC)C(C)C)CCN(CCC(=O)NCCN(C(=O)CCCc1ccc(N(CCCl)CCCl)cc1)C(C(=O)NCCCC(=O)OC)C(C)C)CCC(=O)NCCN(C(=O)CCCc1ccc(N(CCCl)CCCl)cc1)C(C(=O)NCCCC(=O)OC)C(C)C)C(=O)CCCC[C@@H]1SC[C@@H]2NC(=O)N[C@@H]21 (some centres unmarked) [Dendrimer 3a] | Low | 
5 | CC(C)C(C(=O)NCCCC(=O)O)N(CCNC(=O)CCN(CCC(=O)NCCN(C(=O)CCCc1ccc(N(CCCl)CCCl)cc1)C(C(=O)NCCCC(=O)O)C(C)C)CCN(CCC(=O)NCCN(C(=O)CCCc1ccc(N(CCCl)CCCl)cc1)C(C(=O)NCCCC(=O)O)C(C)C)CCC(=O)NCCN(C(=O)CCCc1ccc(N(CCCl)CCCl)cc1)C(C(=O)NCCCC(=O)O)C(C)C)C(=O)CCCC[C@@H]1SC[C@@H]2NC(=O)N[C@@H]21 (some centres unmarked) [Dendrimer 3b] | High | 
6 | COC(=O)CCCNC(=O)C(C(C)C)N(CCNC(=O)CCN(CCC(=O)NCCN(C(=O)CCCC[C@@H]1SC[C@@H]2NC(=O)N[C@@H]21)C(C(=O)NCCCC(=O)OC)C(C)C)CCN(CCC(=O)NCCN(C(=O)CCCC[C@@H]1SC[C@@H]2NC(=O)N[C@@H]21)C(C(=O)NCCCC(=O)OC)C(C)C)CCC(=O)NCCN(C(=O)CCCc1ccc(N(CCCl)CCCl)cc1)C(C(=O)NCCCC(=O)OC)C(C)C)C(=O)CCCC[C@@H]1SC[C@@H]2NC(=O)N[C@@H]21 (some centres unmarked) [Dendrimer 5a] | Low | 
7 | CC(C)C(C(=O)NCCCC(=O)O)N(CCNC(=O)CCN(CCC(=O)NCCN(C(=O)CCCC[C@@H]1SC[C@@H]2NC(=O)N[C@@H]21)C(C(=O)NCCCC(=O)O)C(C)C)CCN(CCC(=O)NCCN(C(=O)CCCC[C@@H]1SC[C@@H]2NC(=O)N[C@@H]21)C(C(=O)NCCCC(=O)O)C(C)C)CCC(=O)NCCN(C(=O)CCCc1ccc(N(CCCl)CCCl)cc1)C(C(=O)NCCCC(=O)O)C(C)C)C(=O)CCCC[C@@H]1SC[C@@H]2NC(=O)N[C@@H]21 (some centres unmarked) [Dendrimer 5b] | High | 
8 | O=C(O)CCCc1ccc(N(CCCl)CCCl)cc1 [chlorambucil] |  | IC50 (PC-3 cells [5]): > 100 µM; IC50 (PC-3 cells [6]): > 100 µM; activity of free agent on PC-3 cells [7]: almost no activity
